Measurements published in US9915657B2, “Lateral flow device for diagnosing microbial infections” (THE JOHNS HOPKINS UNIVERSITY, priority 2009, dated 2018).

How the values were obtained:
[1] = rabbit model; within 24 hours of intravenous injection; cited from earlier work
[2] = Competition ELISA, relative affinities of GM-binding MAbs; design: species or system Aspergillus fumigatus
Method: FIG. 9 is a graph showing the relative affinities of GM-binding MAbs. Measurements were made by competition ELISA using soluble ethanol-precipitated culture filtrate. Percent of maximal binding is shown;
The relative affinities of the GM-binding MAbs were determined by competition ELISA. […] The % of maximal binding is shown in (FIG. 9). […] These values are similar to those reported for other polysaccharide-binding MAbs.
Competition ELISAs were done using each combination of the MAb pairs to confirm that the MAbs were binding to the same epitope and their relative avidities for GM. Biotinylation of the second MAb allowed the use of alkaline phosphatase-conjugated streptavidin for detection and was done by linkage of anion exchange-purified MAbs to sulfo-NHS-LC biotin. Competition among each of the MAb pairs was observed, supporting binding to similar epitopes or the presence of steric hindrance. […] The MAb 838-producing hybridoma manufactures relatively low concentrations of MAb, making use of this cell line difficult.

Molecule	GM excreted in the urine [1] [%]	Kd ([2]; calculated from competition ELISA, read-out: dissociation constant (Kd)) [nM]	affinity for GM, higher than the other three MAbs ([2]; competition ELISA)	concentration required for competition, lower than for the other MAbs ([2]; competition ELISA between MAb pairs)
Galactomannan [GM]	35			
MAb 838: IgMκ monoclonal antibody to galactofuranose-containing GM; VH SEQ ID NO:7, VL SEQ ID NO:8 (antibody, listed as Mus musculus, V domains shown, (1)..(342) 838.9.4 VH (B4B); (1)..(318) 838.9.4. VL (p6)) VH: EVQLEESLRLSCATSGFTFSDFYMEWVRQPPGKRLEWIAASRNKANDYTTEYSASVKGRFFVSRDTSQSILYLQMNALRAEDTAIYYCARDVMITTGDWYFDVWGAGTTVTVSS VL: DILMTQSQKFMSTSVGDRVSVTCKASQNVGTNVAWYQQKPGQSPKALIYSASYQYSGVPDRFTGSGSGTDFTLTISNVQSEDLAEYFCQQFNSYHVRLGDKVGIKT		100	approximately 10 fold	approximately 10 fold
